From article doi:10.1101/2022.11.19.22282342

Target: TYROBP transmembrane domain (TMD), bacterial two-hybrid fusion (UniProt O43914)
Assay: two-hybrid

Sequence of UniProt O43914 (O43914 22-113): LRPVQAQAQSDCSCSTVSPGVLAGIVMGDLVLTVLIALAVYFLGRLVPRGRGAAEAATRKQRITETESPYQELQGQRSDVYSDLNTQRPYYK

Row | Molecule | Miller Units (β-galactosidase, B2H)
1 | TREM2 transmembrane domain (TMD), bacterial two-hybrid fusion (from UniProt Q9NZC2 19-230) (domain or fragment) | 903 Miller Units
2 | PLLIAFLLGPKVLLVVGVSVIYVY (domain or fragment) [SIRPβ1 isoform 202 transmembrane domain (TMD), bacterial two-hybrid fusion] | 94 Miller Units
3 | PLLVALLLGPKLLLVVGVSAIYIC (domain or fragment) [SIRPβ1 isoform 201 transmembrane domain (TMD), bacterial two-hybrid fusion] | 111 Miller Units
